Measured values taken from article PMC9860317, “Regulation of the DEAH/RHA helicase Prp43 by the G-patch factor Pfa1” (Proceedings of the National Academy of Sciences of the …, 2022).
Where “and” joins values, the source holds several entries; their conditions need not be identical. Equal entries are not always repeated. One block for each substance: values may come before it.

Experiments:
[1] = target: scPrp43 (Saccharomyces cerevisiae S288c) (UniProt P53131); test: fluorescence polarization; details: smFRET: 50 mM Tris-HCl pH 7.5, 150 mM KCl, 3 mM MgCl2 (TIRF buffer B; imaging in TIRF buffer C), FP: 6 nM labeled ssRNA, buffer and temperature not in material
[2] = target: T1, scPrp43;scPfa1(gp) (Saccharomyces cerevisiae S288c;Saccharomyces cerevisiae) (UniProt P53131+P53866); test: fluorescence polarization; details: smFRET: 50 mM Tris-HCl pH 7.5, 150 mM KCl, 3 mM MgCl2 (TIRF buffer B; imaging in TIRF buffer C), FP: 6 nM labeled ssRNA, buffer and temperature not in material
[3] = target: Chaetomium thermophilum Prp43 with fluorescence labelling sites at C170 (RecA1) and C303 (RecA2), Cy3/Cy5-labelled (Chaetomium thermophilum)
[4] = target: scPrp43 (Saccharomyces cerevisiae S288c) (UniProt P53131); test: smFRET (TIRF); details: smFRET: 50 mM Tris-HCl pH 7.5, 150 mM KCl, 3 mM MgCl2 (TIRF buffer B; imaging in TIRF buffer C), FP: 6 nM labeled ssRNA, buffer and temperature not in material
[5] = target: T1, scPrp43;scPfa1(gp) (Saccharomyces cerevisiae S288c;Saccharomyces cerevisiae); test: smFRET (TIRF); details: smFRET: 50 mM Tris-HCl pH 7.5, 150 mM KCl, 3 mM MgCl2 (TIRF buffer B; imaging in TIRF buffer C), FP: 6 nM labeled ssRNA, buffer and temperature not in material

Substance: ssRNA (fluorescence polarization)
Kd ([1]; ADP): > 100 µM | Kd ([1]; AMPPNP): 0.4 µM | Kd ([1]; nucleotide-free): 7 µM | Kd ([2]; nucleotide-free, with Pfa1(gp)): 0.03 µM | Kd [2]: 0.08 µM and 0.5 µM

ATP turnover (kcat) of the Prp43–Pfa1(gp) complex with ssRNA, coupled enzymatic assay [3]: 9.6 s⁻¹ | ATP turnover (kcat) of the Prp43–Pfa1(gp) complex without ssRNA, coupled enzymatic assay (Prp43 alone: kcat = 0.01 s^-1) [3]: 0.4 s⁻¹
Substance: G-patch motif of Chaetomium thermophilum Pfa1 (domain or fragment)

Substance: GCGCCUACGCCACCAGCUCCGUAGGCGCAGGAGCGCCUACGGAGCUGGUGGCGUAGGCGCAAAAAAAAAAAAAAAUAAAAAAAAAAAAAAAAAAAA [smFRET stem-loop RNA probe with 3' overhang]
binding signal ([4]; 0.5 uM Prp43, 2 mM AMPPNP): 36 % bound | binding signal ([4]; 5 uM Prp43, apo (main text gives 24%)): 21 % bound | binding signal ([5]; 0.5 uM Prp43, 2.5 uM Pfa1(gp), nucleotide-free): 88 % bound | binding signal (% bound (plus 20% partially unwound)) ([5]; 2 uM ATP, table row label cut, matched by FRET values): 55 | binding signal ([5]; ADP, koff 0.45 s-1): 52 % bound
